{
  "source": "patent US20050032145A1",
  "about": "“Methods for measuring activity of glutamine:fructose 6-phosphate amidotransferase and activity of inhibitors thereof” (priority 2002, published 2005)",
  "key": {"[1]": {"substrate": "NC(=O)CC[C@H](N)C(=O)O", "test": "Substrate Km determination, Lineweaver-Burk plot (GFAT-alpha)", "assay_type": "biochemical, human", "details": "other: extracts from transfected SF9 insect cells, other substrate at saturating levels", "method": "(§1) FIG. 3 illustrates the effect of varying concentrations of the substrates glutamine and fructose 6-phosphate on the enzyme activity of GFAT-alpha and GFAT-beta. FIG. 3A is a graph illustrating incubation with 10 μl glutamine 200 mM+10 μl fructose 6-phosphate 3.125, 6.25, 12.5, 25, 50, 100, and 200 mM. FIG. 3B is a graph illustrating incubation with 10 μl fructose 6-phosphate 200 mM+10 μl glutamine 3.125, 6.25, 12.5, 25, 50, 100, and 200 mM. 10 μl of GFAT-alpha and 5 μl of GFAT-beta extracts from transfected SF9 insect cells are incubated with 1) 10 μl glutamine 200 mM+10 μl fructose 6-phosphate 3.125, 6.25, 12.5, 25, 50, 100, and 200 mM, and 2) 10 μl fructose 6-phosphate 200 mM+10 μl glutamine 3.125, 6.25, 12.5, 25, 50, 100, and 200 mM in an incubation media containing 10 μl PBS 10×, 10 μl EDTA 50 mM, 10 μl, DTT 10 mM and water to 100 μl. The plate is sealed with a Costar plate sealer and incubated for 60 minutes at 37° C. by floating on a water bath. Additional incubation mixture is kept on ice to add to standard and control samples. […] After a 20-minute incubation at 37° C., the OD is determined for each well at 585 nm. […]\n(§2) FIG. 3C is a table illustrating the Km values of the substrates for the GFAT-alpha and GFAT-beta enzymes calculated from the data generated in FIGS. 3A and 3B. […]"}, "[2]": {"substrate": "O=C(CO)[C@@H](O)[C@H](O)[C@H](O)COP(=O)(O)O", "test": "Substrate Km determination, Lineweaver-Burk plot (GFAT-alpha)", "assay_type": "biochemical, human", "details": "other: extracts from transfected SF9 insect cells, other substrate at saturating levels", "method": "as §1, §2"}},
  "data": [
    {"protein": "GFAT-alpha (Homo sapiens; I57T) (protein, made in house; host or cells: SF9 insect cells (sonicated, centrifuged cell extract)) MCGIFAYLNYHVPRTRREILETLIKGLQRLEYRGYDSAGVGFDGGNDKDWEANACKTQLIKKKGKVKALDEEVHKQQDMDLDIEFDVHLGIAHTRWATHGEPSPVNSHPQRSDKNNEFIVIHNGIITNYKDLKKFLESKGYDFESETDTETIAKLVKYMYDNRESQDTSFTTLVERVIQQLEGAFALVFKSVHFPGQAVGTRRGSPLLIGVRSEHKLSTDHIPILYRTGKDKKGSCNLSRVDSTTCLFPVEEKAVEYYFASDASAVIEHTNRVIFLEDDDVAAVVDGRLSIHRIKRTAGDHPGRAVQTLQMELQQIMKGNFSSFMQKEIFEQPESVVNTMRGRVNFDDYTVNLGGLKDHIKEIQRCRRLILIACGTSYHAGVATRQVLEELTELPVMVELASDFLDRNTPVFRDDVCFFLSQSGETADTLMGLRYCKERGALTVGITNTVGSSISRETDCGVHINAGPEIGVASTKAYTSQFVSLVMFALMMCDDRISMQERRKEIMLGLKRLPDLIKEVLSMDDEIQKLATELYHQKSVLIMGRGYHYATCLEGALKIKEITYMHSEGILAGELKHGPLALVDKLMPVIMIIMRDHTYAKCQNALQQVVARQGRPVVICDKEDTETIKNTKRTIKVPHSVDCLQGILSVIPLQLLAFHLAVLRGYDVDFPRNLAKSVTVE", "values": [
      {"measurement": "Km", "setting": "[1]", "result": 1490, "unit": "µM"},
      {"measurement": "Km", "setting": "[2]", "result": 1850, "unit": "µM"}
    ]}
  ]
}
